The target in the experiment is T1, human VEGFR-2/Fc (R&D Systems) (human, UniProt P35968 20-764).
T1 construct: also called recombinant VEGFR2/Fc; VEGFR/Fc; not shown: Fc part of the bought fusion protein (captured by anti-human IgG-Fc in the ELISA)
The experiment can be described thus: SPR, Biacore 3000, human VEGFR-2/Fc immobilized. In general terms: In SPR one partner is held on a chip, and binding of the other changes the refractive index at the surface.

T1 sequence (P35968 20-764): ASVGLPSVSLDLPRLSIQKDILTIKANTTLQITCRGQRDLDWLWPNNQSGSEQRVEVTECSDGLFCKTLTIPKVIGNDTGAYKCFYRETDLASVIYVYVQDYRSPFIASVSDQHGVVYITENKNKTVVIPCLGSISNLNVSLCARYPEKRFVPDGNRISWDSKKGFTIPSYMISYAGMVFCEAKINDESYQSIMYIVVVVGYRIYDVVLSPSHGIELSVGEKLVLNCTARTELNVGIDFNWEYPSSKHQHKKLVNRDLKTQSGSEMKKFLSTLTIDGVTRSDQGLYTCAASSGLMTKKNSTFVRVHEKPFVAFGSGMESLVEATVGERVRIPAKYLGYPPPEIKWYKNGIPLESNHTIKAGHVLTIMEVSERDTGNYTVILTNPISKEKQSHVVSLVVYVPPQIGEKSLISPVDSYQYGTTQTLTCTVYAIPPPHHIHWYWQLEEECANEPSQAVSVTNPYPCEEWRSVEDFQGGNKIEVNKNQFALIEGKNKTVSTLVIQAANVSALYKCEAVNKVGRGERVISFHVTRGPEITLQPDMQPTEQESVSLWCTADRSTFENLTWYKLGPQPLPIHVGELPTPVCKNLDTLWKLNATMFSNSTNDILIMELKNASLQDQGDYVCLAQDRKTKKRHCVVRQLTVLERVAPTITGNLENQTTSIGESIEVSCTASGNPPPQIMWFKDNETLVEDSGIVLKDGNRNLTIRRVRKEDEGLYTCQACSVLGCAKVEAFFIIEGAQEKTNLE

B1: AB4 with linker 2; VR2-38 (SEQ ID NO:27) (VHH)
VHH: QVKLEESGGGLVQAGGSLRLSCAASGGTASSYAMGWFRQAPGKEREFVAAISRSGGNTDYVDSAKGRFTISRDDAKNTVSLQMNSLRLEDTAVYYCAARYAGTWPNDAGTVYWLPPNYNYWGQGTQVTVSS
B1 gave an equilibrium dissociation constant (Kd) of 80 nM and a koff of 0.015 s⁻¹.

For orientation: Kd means the equilibrium constant for the complex coming apart. The low end stands for higher affinity, the high end for lower affinity. As usually defined, the koff is a measure of how fast the partners let go of each other. Low values mean slow dissociation, high ones fast dissociation.

Values taken from patent US20180230219A1 (HELIX BIOPHARMA, published 2018).
